Values quoted from earlier work, collected in patent publication US20250304973A1, “HIGH-AFFINITY THROMBIN APTAMERS AND METHODS OF USE” (Ayass Bioscience LLC, priority 2024, published 2025).

Conditions: reversal of dabigatran

B1: Idarucizumab: a monoclonal antibody that binds to dabigatran and neutralizes its anticoagulant properties (antibody, chains of the INN, looked up, V domains shown)
VH: QVQLQESGPGLVKPSETLSLTCTVSGFSLTSYIVDWIRQPPGKGLEWIGVIWAGGSTGYNSALRSRVSITKDTSKNQFSLKLSSVTAADTAVYYCASAAYYSYYNYDGFAYWGQGTLVTVSS
VL: DVVMTQSPLSLPVTLGQPASISCKSSQSLLYTDGKTYLYWFLQRPGQSPRRLIYLVSKLDSGVPDRFSGSGSGTDFTLKISRVEAEDVGVYYCLQSTHFPHTFGGGTKVEIK
modifications: Fab
  time to reversal of anticoagulant effect: this in ~2-4 hours
